Test results reported in patent publication US20250320312A1 (OXITOPE PHARMA B V, published 2025).

T1: Peptide 8: Biotin-AEAAAKEAAAKEAAAKEAAAKAAA-Tyr-acid (N-terminal biotin; C-terminal acid; no PC)
T1 construct: control peptide without PC
T1 peptide: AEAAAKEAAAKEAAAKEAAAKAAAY

T2: Peptide 4: Biotin-AGGGGSGGGGSGGGGSAAA-Tyr-acid (N-terminal biotin; C-terminal acid; no PC)
T2 construct: control peptide without PC
T2 peptide: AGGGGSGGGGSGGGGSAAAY


How the values were obtained:
Test in all cases: scFv ELISA
[1] = biological target: Peptide 1: Biotin-…-[Tyr(PC)]-acid
[2] = biological target: Peptide 5: Biotin-…-[Tyr(PC)]-acid
[3] = biological target: BSA (UniProt P02769)
[4] = biological target: T1, Peptide 8: …
Outline: (§1)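 Bound scFv was read as OD450 after HRP–anti-V5 detection, TMB development and HCl stop. PPE with BSA was incubated 1 h at RT on BSA-blocked wells coated overnight at 4° C. with peptide, or on streptavidin wells loaded 1 h with biotinylated PC-peptides at 1 μg/mL.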

[5] = biological target: T2, Peptide 4: …
Outline: as §1

Sequence of BSA (P02769 25-607 limits assumed): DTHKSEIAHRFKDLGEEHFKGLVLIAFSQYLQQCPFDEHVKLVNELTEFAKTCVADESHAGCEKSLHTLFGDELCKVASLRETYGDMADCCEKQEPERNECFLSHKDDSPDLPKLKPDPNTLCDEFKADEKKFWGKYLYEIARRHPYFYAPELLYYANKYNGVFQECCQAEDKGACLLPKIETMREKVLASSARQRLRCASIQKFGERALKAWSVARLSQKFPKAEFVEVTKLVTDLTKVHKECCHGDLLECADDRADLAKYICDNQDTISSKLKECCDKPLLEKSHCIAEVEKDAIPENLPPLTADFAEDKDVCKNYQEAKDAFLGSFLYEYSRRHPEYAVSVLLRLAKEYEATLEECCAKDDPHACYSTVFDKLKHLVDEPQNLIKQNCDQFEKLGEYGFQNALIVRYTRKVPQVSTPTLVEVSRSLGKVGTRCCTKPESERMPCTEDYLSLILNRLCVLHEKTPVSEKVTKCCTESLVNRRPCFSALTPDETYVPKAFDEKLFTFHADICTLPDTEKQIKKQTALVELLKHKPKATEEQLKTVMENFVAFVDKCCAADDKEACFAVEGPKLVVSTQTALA

OD450 [1] [OD450]	OD450 [2] [OD450]	OD450 [3] [OD450]	OD450 [4] [OD450]	OD450 [5] [OD450]	Binder
0.8	1.41	0.08	0.08	0.07	PcOxP_DB01_F03 (scFv, V domains shown, scFv in periplasmic extract) VH: EVQLLESGGGLVQPGGSLRLSCAASGFTFSDSYMEWVRQAPGKGLEWVAASRNKYNDYTTEYADSVKGRFTISRDNSKNTLYLQMNSLRAEDTAVYYCARDYYGSSYWYFDVWGQGTLVTVSS VL: DIVMTQSPDSLAVSLGERATINCTASESLYSSKHKVHYLAWYQQKPGQPPKLLIYGASNRYIGVPDRFSGSGSGTDFTLTISSLQAEDVAVYYCAQFYSYPLTFGGGTKVEIK
0.71	1.52	0.1	0.05	0.05	PcOxP_DB01_G10 (scFv, V domains shown, scFv in periplasmic extract) VH: EVQLLESGGGLVQPGGSLRLSCAASGFTFSDFYMEWVRQAPGKGLEWVAASRNKNNDYTTEYADSVKGRFTISRDNSKNTLYLQMNSLRAEDTAVYYCARDYYGSSYWYFDVWGQGTLVTVSS VL: DIVMTQSPDSLAVSLGERATINCKASQSLYSSKHKKHYLAWYQQKPGQPPKLLIYGASNRYPGVPDRFSGSGSGTDFTLTISSLQAEDVAVYYCAQFYRYPLTFGGGTKVEIK
0.31	0.81	0.06	0.04	0.04	PcOxP_DB01_F07 (scFv, V domains shown, scFv in periplasmic extract) VH: EVQLLESGGGLVQPGGSLRLSCAASGDTFSDFYLEWVRQAPGKGLEWVAASRNKANGYTTEYADSVKGRFTISRDNSKNTLYLQMNSLRAEDTAVYYCARDYYHSSYWYFDVWGQGTLVTVSS VL: DIVMTQSPDSLAVSLGERATINCTASESLYSSKHKVHYLAWYQQKPGQPPKLLIYGASNRYIGVPDRFSGSGSGTDFTLTISSLQAEDVAVYYCAHFYSYPLTFGGGTKVEIK
0.46	1.2	0.07	0.04	0.05	PcOxP_DB01_G07 (scFv, V domains shown, scFv in periplasmic extract) VH: EVQLLESGGGLVQPGGSLRLSCAASGFTFSDYYMEWVRQAPGKGLEWVAASRNKYNDYTTEYADSVKGRFTISRDNSKNTLYLQMNSLRAEDTAVYYCARDYYGSSYWYFDVWGQGTLVTVSS VL: DIVMTQSPDSLAVSLGERATINCTASESLYGSKHKVHYLAWYQQKPGQPPKLLIYGASNRYIGVPDRFSGSGSGTDFTLTISSLQAEDVAVYYCAQFYSYPLTFGGGTKVEIK
0.12	0.53	0.07	0.04	0.04	PcOxP_DB01_F06 (scFv, V domains shown, scFv in periplasmic extract) VH: EVQLLESGGGLVQPGGSLRLSCAASGDTFSDFYMEWVRQAPGKGLEWVAASRNKANDYTTEYADSVKGRFTISRDNSKNTLYLQMNSLRAEDTAVYYCARDYYGSSYWYFDVWGQGTLVTVSS VL: DIVMTQSPDSLAVSLGERATINCKSSQSLYYSSNKKNYLAWYQQKPGQPPKLLIYGASNRYGGVPDRFSGSGSGTDFTLTISSLQAEDVAVYYCAQFYRYPLTFGGGTKVEIK
0.69	1.24	0.08	0.05	0.05	PcOxP_DB01_G05 (scFv, V domains shown, scFv in periplasmic extract) VH: EVQLLESGGGLVQPGGSLRLSCAASGFTFSSYYMEWVRQAPGKGLEWVAASRNKANEYTTEYADSVKGRFTISRDNSKNTLYLQMNSLRAEDTAVYYCARDYYGSSYWYFDVWGQGTLVTVSS VL: DIVMTQSPDSLAVSLGERATINCTASESLYSSKHKVHYLAWYQQKPGQPPKLLIYGASNRYIGVPDRFSGSGSGTDFTLTISSLQAEDVAVYYCANFYSYPLTFGGGTKVEIK
0.82	1.23	0.09	0.06	0.07	PcOxP_DB01_H01 (scFv, V domains shown, scFv in periplasmic extract) VH: EVQLLESGGGLVQPGGSLRLSCAASGFTFSSYYMEWVRQAPGKGLEWVAASRNKANLYTTEYADSVKGRFTISRDNSKNTLYLQMNSLRAEDTAVYYCARDYYGSSTWYFDVWGQGTLVTVSS VL: DIVMTQSPDSLAVSLGERATINCTASESLYSSKHKVHYLAWYQQKPGQPPKLLIYGASNRYIGVPDRFSGSGSGTDFTLTISSLQAEDVAVYYCAQFYSYPLTFGGGTKVEIK
0.43	0.94	0.07	0.05	0.05	PcOxP_DB01_G03 (scFv, V domains shown, scFv in periplasmic extract) VH: EVQLLESGGGLVQPGGSLRLSCAASGFTFSDGYMEWVRQAPGKGLEWVAASRNKANDYTTEYADSVKGRFTISRDNSKNTLYLQMNSLRAEDTAVYYCARDYYGSSYWYFDVWGQGTLVTVSS VL: DIVMTQSPDSLAVSLGERATINCTASTSLYSSKHKVHYLAWYQQKPGQPPKLLIYGASNRYIGVPDRFSGSGSGTDFTLTISSLQAEDVAVYYCAQFYTYPLTFGGGTKVEIK
0.46	1.29	0.1	0.06	0.07	PcOxP_DB01_H03 (scFv, V domains shown, scFv in periplasmic extract) VH: EVQLLESGGGLVQPGGSLRLSCAASGFTFSDHYMEWVRQAPGKGLEWVAASRGKGNSYTTAYADSVKGRFTISRDNSKNTLYLQMNSLRAEDTAVYYCARDYYGSSYWYFDVWGQGTLVTVSS VL: DIVMTQSPDSLAVSLGERATINCTASESLYSSKHKVHYLAWYQQKPGQPPKLLIYGAGNRYIGVPDRFSGSGSGTDFTLTISSLQAEDVAVYYCAQFYHYPLTFGGGTKVEIK
0.52	1.22	0.06	0.04	0.04	PcOxP_DB01_F08 (scFv, V domains shown, scFv in periplasmic extract) VH: EVQLLESGGGLVQPGGSLRLSCAASGFTFSDGYMEWVRQAPGKGLEWVAASRNKWNDYTTEYADSVKGRFTISRDNSKNTLYLQMNSLRAEDTAVYYCARDYYGSSYWYFDVWGQGTLVTVSS VL: DIVMTQSPDSLAVSLGERATINCTASESLYSSKHKVHYLAWYQQKPGQPPKLLIYGASNRYSGVPDRFSGSGSGTDFTLTISSLQAEDVAVYYCAQFYSYPLTFGGGTKVEIK
0.56	1.01	0.07	0.07	0.05	PcOxP_DB01_G04 (scFv, V domains shown, scFv in periplasmic extract) VH: EVQLLESGGGLVQPGGSLRLSCAASGFTFSDGYMEWVRQAPGKGLEWVAASRNKANDYTTEYADSVKGRFTISRDNSKNTLYLQMNSLRAEDTAVYYCARDYYGSSYWYFDVWGQGTLVTVSS VL: DIVMTQSPDSLAVSLGERATINCTASESLYSSKHKVHYLAWYQQKPGQPPKLLIYGASNRYSGVPDRFSGSGSGTDFTLTISSLQAEDVAVYYCAQFYSYPLTFGGGTKVEIK
0.74	1.1	0.1	0.06	0.07	PcOxP_DB01_H02 (scFv, V domains shown, scFv in periplasmic extract) VH: EVQLLESGGGLVQPGGSLRLSCAASGFTFSSYYMEWVRQAPGKGLEWVAASRNKANDYTTEYADSVKGRFTISRDNSKNTLYLQMNSLRAEDTAVYYCARDYYGSSYWYFDVWGQGTLVTVSS VL: DIVMTQSPDSLAVSLGERATINCTASSSLYSSKHKVHYLAWYQQKPGQPPKLLIYGASNRYIGVPDRFSGSGSGTDFTLTISSLQAEDVAVYYCAQFYSYPLTFGGGTKVEIK
0.76	1.43	0.06	0.05	0.05	PcOxP_DB01_F12 (scFv, V domains shown, scFv in periplasmic extract) VH: EVQLLESGGGLVQPGGSLRLSCAASGFTHSDFYMEWVRQAPGKGLEWVAASRNKANGYTTEYADSVKGRFTISRDNSKNTLYLQMNSLRAEDTAVYYCARDYYGSSYWYFDSWGQGTLVTVSS VL: DIVMTQSPDSLAVSLGERATINCTASESLYSSKHKVHYLAWYQQKPGQPPKLLIYGASNRYVGVPDRFSGSGSGTDFTLTISSLQAEDVAVYYCAQFYSYPLTFGGGTKVEIK
0.82	1.2	0.06	0.04	0.05	PcOxP_DB01_G02 (scFv, V domains shown, scFv in periplasmic extract) VH: EVQLLESGGGLVQPGGSLRLSCAASGFLFSDFYMEWVRQAPGKGLEWVAASRNKANDYTTTYADSVKGRFTISRDNSKNTLYLQMNSLRAEDTAVYYCARDYYGSHYWYFDVWGQGTLVTVSS VL: DIVMTQSPDSLAVSLGERATINCTASESLYSSKHKVHYLAWYQQKPGQPPKLLIYGASNREIGVPDRFSGSGSGTDFTLTISSLQAEDVAVYYCAQFYFYPLTFGGGTKVEIK
1.55	1.92	0.07	0.05	0.07	PcOxP_DB01_F11 (scFv, V domains shown, scFv in periplasmic extract) VH: EVQLLESGGGLVQPGGSLRLSCAASGFTFSSYYMEWVRQAPGKGLEWVAASRNKANDYTTEYADSVKGRFTISRDNSKNTLYLQMNSLRAEDTAVYYCARDYYGSSYWYYDVWGQGTLVTVSS VL: DIVMTQSPDSLAVSLGERATINCTASESLYSSKHKVHYLAWYQQKPGQPPKLLIYGASNRYIGVPDRFSGSGSGTDFTLTISSLQAEDVAVYYCAQFYSYPLTFGGGTKVEIK
0.73	1.32	0.06	0.04	0.05	PcOxP_DB01_G06 (scFv, V domains shown, scFv in periplasmic extract) VH: EVQLLESGGGLVQPGGSLRLSCAASGFTFSDYYMEWVRQAPGKGLEWVAASRNKWNDYTTEYADSVKGRFTISRDNSKNTLYLQMNSLRAEDTAVYYCARDYYGSSYWYFDVWGQGTLVTVSS VL: DIVMTQSPDSLAVSLGERATINCTASESLYSSKHKVHYLAWYQQKPGQPPKLLIYGASNRYSGVPDRFSGSGSGTDFTLTISSLQAEDVAVYYCAQFYSYPLTFGGGTKVEIK
